{
  "source": "patent US8394929B2",
  "about": "“Nogo receptor-mediated blockade of axonal growth” (Yale University, priority 2000, dated 2013)",
  "molecules": {"B1": {"name": "AP-NgR: mNgR residues 27-451 fused to signal sequence-6x His-placental alkaline phosphatase (protein)", "chain": "HHHHHHIIPVEEENPDFWNREAAEALGAAKKLQPAQTAAKNLIIFLGDGMGVSTVTAARILKGQKKDKLGPEIPLAMDRFPYVALSKTYNVDKHVPDSGATATAYLCGVKGNFQTIGLSAAARFNQCNTTRGNEVISVMNRAKKAGKSVGVVTTTRVQHASPAGTYAHTVNRNWYSDADVPASARQEGCQDIATQLISNMDIDVILGGGRKYMFRMGTPDPEYPDDYSQGGTRLDGKNLVQEWLAKRQGARYVWNRTELMQASLDPSVTHLMGLFEPGDMKYEIHRDSTLDPSLMEMTEAALRLLSRNPRGFFLFVEGGRIDHGHHESRAYRALTETIMFDDAIERAGQLTSEEDTLSLVTADHSHVFSFGGYPLRGSSIFGLAPGKARDRKAYTVLLYGNGPGYVLKDGARPDVTESESGSPEYRQQSAVPLDEETHAGEDVAVFARGPQAHLVHGVQEQTFIAHVMAFAACLEPYTACDLAPPAGTTDAAHPGCPGACVCYNEPKVTTSCPQQGLQAVPTGIPASSQRIFLHGNRISHVPAASFQSCRNLTILWLHSNALARIDAAAFTGLTLLEQLDLSDNAQLHVVDPTTFHGLGHLHTLHLDRCGLRELGPGLFRGLAALQYLYLQDNNLQALPDNTFRDLGNLTHLFLHGNRIPSVPEHAFRGLHSLDRLLLHQNHVARVHPHAFRDLGRLMTLYLFANNLSMLPAEVLMPLRSLQYLRLNDNPWVCDCRARPLWAWLQKFRGSSSEVPCNLPQRLADRDLKRLAASDLEGCAVASGPFRPIQTSQLTDEELLSLPKCCQPDAADKASVLEPGRPASAGNALKGRVPPGDTPPGNGSGPRHINDSPFGTLPSSAEPPLTALRPGGSEPPGLPTTGPRRRPGCSRKNRTRSHCRLGQAGSGASGTGDAEGSGALP"}},
  "key": {"NgR deletion mutants": {"test_system": "NgR deletion mutants", "assay": "AP-NgR binding to COS-7 cells transfected with other NgR deletion mutants", "set-up": "species or system mouse", "experimental": "(§1) A vector encoding AP-hNogo-A (1055-1120) was constructed as described in Fournier et al., supra). The vector encoding AP-NgR was made by ligating the mNgR coding sequence from residues 27-451 in frame with the signal sequence-6× His—placental alkaline phosphatase (AP) sequence of the vector known as pAP-6 (Nakamura et al., Neuron 2: 1093-1100, 1988).\n(§2) NgR was tested for the ability to self-associate. For this study, mNgR [hereinafter, wtNgR or WT] and mNgR deletion mutants (see FIG. 18A) were transfected into COS-7 cells. Forty-eight hours after the transfection, the transfected COS-7 cells were washed with HBH. Cells were then incubated for 2 hours at 23° C. with a conditioned medium containing […] diluted in HBH. AP-fusion protein was detected as previously described for AP-Sema3A (Takahashi et al., Nature Neurosci. 1:487-493, 1998). Similar to the AP-Nogo binding profile, AP-NgR bound to wtNgR and NgRΔCT (FIG. 23). Nogo treatment had little, if any, effect on the NgR-NgR interaction (data not shown). […] The same NgR domains are required for GST-hNogo-A (1055-1120) binding and NgR oligomerization"}, "NgRΔCT": {"molecular_target": "T1, NgRΔCT (Mus musculus, UniProt Q99PI8)", "T1 construct": "encodes residues 26 to 305 and 443 to473 of mNgR; vector secretion signal (pSecTag2) (N); 6xHis (C); expressed in transfected cells; host or cells: COS-7", "T1 sequence (Q99PI8 with tags, fused parts or gaps)": "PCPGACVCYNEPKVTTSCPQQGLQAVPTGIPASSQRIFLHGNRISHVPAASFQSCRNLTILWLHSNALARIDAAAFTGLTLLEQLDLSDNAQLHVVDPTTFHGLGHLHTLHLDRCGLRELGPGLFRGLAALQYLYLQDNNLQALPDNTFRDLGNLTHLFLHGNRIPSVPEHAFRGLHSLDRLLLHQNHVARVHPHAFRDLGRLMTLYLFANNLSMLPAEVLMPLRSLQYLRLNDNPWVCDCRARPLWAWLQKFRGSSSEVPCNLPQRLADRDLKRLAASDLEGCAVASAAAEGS", "assay": "AP-NgR binding to COS-7 cells transfected with NgRΔCT", "experimental": "as §1, §2"}, "wtNgR": {"molecular_target": "T2, wtNgR (Mus musculus, UniProt Q99PI8)", "T2 construct": "wtNgR encodes residues 1 to 473 of mNgR; vector secretion signal (pSecTag2) (N); 6xHis (C); expressed in transfected cells; host or cells: COS-7", "T2 sequence (Q99PI8 27-473)": "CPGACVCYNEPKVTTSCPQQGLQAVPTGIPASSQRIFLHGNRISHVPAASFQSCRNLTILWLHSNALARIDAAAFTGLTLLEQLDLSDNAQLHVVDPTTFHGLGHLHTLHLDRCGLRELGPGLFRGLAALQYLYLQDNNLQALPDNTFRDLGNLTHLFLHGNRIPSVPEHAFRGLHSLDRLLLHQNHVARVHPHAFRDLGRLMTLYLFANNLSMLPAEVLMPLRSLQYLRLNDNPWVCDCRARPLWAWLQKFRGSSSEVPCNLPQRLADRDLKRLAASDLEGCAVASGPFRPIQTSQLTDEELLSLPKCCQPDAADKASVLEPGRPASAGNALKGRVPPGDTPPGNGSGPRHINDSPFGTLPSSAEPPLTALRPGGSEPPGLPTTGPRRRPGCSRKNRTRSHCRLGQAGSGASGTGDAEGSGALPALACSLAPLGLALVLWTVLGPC", "assay": "AP-NgR binding to COS-7 cells transfected with wtNgR", "experimental": "as §1, §2"}},
  "data": [
    {"molecule": "B1", "values": [
      {"measurement": "binding (in words)", "setting": "NgR deletion mutants", "result": "did not bind"},
      {"measurement": "binding (in words)", "setting": "NgRΔCT", "result": "bound"},
      {"measurement": "binding (in words)", "setting": "wtNgR", "result": "bound"}
    ]}
  ]
}
